This note sets out measurements from patent US20200108156.

In series [1] the test system is Cy5.5-NFP1 nanofiber peptide construct, mPEG2000-KKKKKKKLDLKLDLKLDLK-Cy5.5.
Series [2] concerns FITC-NFP1 nanofiber peptide construct, mPEG2000-KKKKKKKLDLKLDLKLDLK(FITC).
The test system of series [3] is DM1-MCC-NFP2 (DM1-loaded NFP2 nanofiber).
In series [4] the test system is Cy5.5-NFP2 nanofiber peptide construct, mPEG2000 KLDLKLDLKLDLK-Cy5.5.
In series [5] the test system is FITC-NFP2 nanofiber peptide construct, mPEG2000-KLDLKLDLKLDLK(FITC).
Series [6] deals with DM1-MCC-NFP1 (DM1-loaded NFP1 nanofiber).

Regarding “Cathepsin B (CathB), purified from bovine spleen (EMD Millipore)”, the “fluorescence recovery after CathB activation” value was “CathB digestion of Cy5.5-NFP1 led to the release of Cy5.5-peptide fragments, thus resulting in the recovery of the fluorescence signal” in series [1] and “the fluorescence of Cy5.5-NFP2 was only slightly increased after exposure to CathB” in series [4]. In addition, the “HPLC of nanofibers after 24 h CathB digestion (enzyme cleavage)” value is listed as “CathB digested FITC-NFP1 into multiple peptide fragments after 24 hours” in series [2] and “only one fragment was identified when FITC-NFP2 was subjected to CathB digestion” in series [5]. The “drug metabolites after CathB digestion (HPLC, MALDI-TOF)” value was “For DM1-MCC-NFP2, no drug metabolite was identified during CathB digestion due to its slow release property” in series [3] and “After CathB digestion, Lys-MCC-DM1 ... was identified in DM1-MCC-NFP1” in series [6].
